Experiments:
cynomolgus monkey C2 [1] = molecular target: T1, cynomolgus monkey C2 (cynomolgus monkey, UniProt G8F3W0 21-752); experiment: cell-based or functional assay
T1 sequence: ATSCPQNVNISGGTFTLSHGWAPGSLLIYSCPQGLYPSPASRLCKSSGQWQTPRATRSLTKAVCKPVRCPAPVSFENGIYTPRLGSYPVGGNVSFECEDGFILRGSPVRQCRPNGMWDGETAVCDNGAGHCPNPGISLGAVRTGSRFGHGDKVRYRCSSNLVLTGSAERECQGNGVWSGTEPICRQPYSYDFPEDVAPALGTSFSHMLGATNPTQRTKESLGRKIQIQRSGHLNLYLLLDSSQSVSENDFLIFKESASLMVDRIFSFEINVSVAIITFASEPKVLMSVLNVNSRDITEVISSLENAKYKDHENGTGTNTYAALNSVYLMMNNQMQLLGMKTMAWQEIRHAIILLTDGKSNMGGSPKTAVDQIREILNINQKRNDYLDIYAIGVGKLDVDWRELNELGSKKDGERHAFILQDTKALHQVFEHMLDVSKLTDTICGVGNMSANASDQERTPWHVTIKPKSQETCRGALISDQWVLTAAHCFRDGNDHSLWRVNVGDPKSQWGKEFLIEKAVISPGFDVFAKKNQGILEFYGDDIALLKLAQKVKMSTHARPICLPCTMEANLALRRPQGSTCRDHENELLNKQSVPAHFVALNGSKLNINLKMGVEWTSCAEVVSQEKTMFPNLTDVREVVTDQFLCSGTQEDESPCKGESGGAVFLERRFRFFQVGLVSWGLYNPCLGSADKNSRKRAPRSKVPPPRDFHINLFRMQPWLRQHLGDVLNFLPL

cynomolgus monkey C2 [2] = molecular target: T1, cynomolgus monkey C2; experiment: SPR, mAb captured, cyno C2 analyte, pH 7.3
Experimental: (§1) Surface plasmon resonance (SPR, Biacore) was used for all binding affinity analyses. In brief, goat anti-human IgG was directly immobilised onto the carboxymethyl dextran surface of CM5 sensorchips to approximately 12,000 RU using standard NHS/EDC chemistry at pH 5. The immobilised antibody surface was pre-conditioned with ten injections of polyclonal human IgG (Privigen 60 s) prepared at 1 μg/mL. Ligands (anti-C2 mAbs) were captured at the beginning of each cycle as described below. An adjacent spot or flow cell in which only Polyclonal IgG was capture was used as a reference surface. The goat anti-human IgG Fc antibody surface was regenerate in 100 mM H3PO4, injected for 45 seconds at the end of each cycle. Experiments were performed at 37° C. and the flow rate of each experiment was kept constant at 30 μL/min.
(§2) In addition to human C2, the pH dependent anti-C2 antibodies were also tested for their ability to bind to C2 from other mammalian species using the SPR methods described above in order to identify suitable surrogate species for in vivo testing. The antibodies were tested for binding at neutral pH against C2 from cynomolgus monkeys, mice, dogs, rabbits, rats, pigs, and sheep.

cynomolgus monkey C2 [3] = molecular target: T1, cynomolgus monkey C2; experiment: SPR, mAb captured, cyno C2 analyte, pH 6.0
Experimental: as §1, §2

human complement C2 [4] = molecular target: T2, human complement C2 (human, UniProt P06681 21-752); experiment: cell-based or functional assay
T2 sequence: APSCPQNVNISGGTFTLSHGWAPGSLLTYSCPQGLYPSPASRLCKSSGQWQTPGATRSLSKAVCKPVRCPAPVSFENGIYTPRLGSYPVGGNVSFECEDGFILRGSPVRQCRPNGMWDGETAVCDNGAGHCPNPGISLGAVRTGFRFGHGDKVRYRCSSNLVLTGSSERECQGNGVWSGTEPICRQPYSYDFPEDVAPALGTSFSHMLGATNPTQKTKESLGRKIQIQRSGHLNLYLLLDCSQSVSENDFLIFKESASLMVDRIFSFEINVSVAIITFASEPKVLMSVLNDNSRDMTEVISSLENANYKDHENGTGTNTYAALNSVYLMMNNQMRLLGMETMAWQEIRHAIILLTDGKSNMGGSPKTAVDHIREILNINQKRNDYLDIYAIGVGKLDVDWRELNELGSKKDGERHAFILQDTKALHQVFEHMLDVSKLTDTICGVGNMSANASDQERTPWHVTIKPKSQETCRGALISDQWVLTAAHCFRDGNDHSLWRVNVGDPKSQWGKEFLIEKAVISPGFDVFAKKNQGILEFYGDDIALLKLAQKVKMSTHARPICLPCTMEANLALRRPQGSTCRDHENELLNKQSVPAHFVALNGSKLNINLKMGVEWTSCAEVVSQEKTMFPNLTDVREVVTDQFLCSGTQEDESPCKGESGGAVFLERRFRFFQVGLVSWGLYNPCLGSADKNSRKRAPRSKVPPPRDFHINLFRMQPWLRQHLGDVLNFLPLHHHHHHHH

cynomolgus monkey C2 [5] = molecular target: T1, cynomolgus monkey C2; experiment: cell-based or functional assay; remark: listed apart in the source
human complement C2 [6] = molecular target: T2, human complement C2; experiment: SPR, mAb captured, C2 analyte, HBS-EP, pH 7.3
Experimental: as §1
(§3) The pH dependent anti-C2 antibodies and their germlined versions were tested for their affinity to C2 at pH 7.3 (neutral pH) and pH 6.0 (early endosome pH) using the SPR methods described above in HBS-EP buffer.

human complement C2 [7] = molecular target: T2, human complement C2; experiment: cell-based or functional assay; remark: listed apart in the source
human complement C2 [8] = molecular target: T2, human complement C2; experiment: SPR, mAb captured, C2 analyte, HBS-EP, pH 6.0
Experimental: as §1, §3

mouse C2 = molecular target: T3, mouse C2 (mouse, UniProt P21180 19-760, limits assumed); experiment: SPR, mAb captured, mouse C2 analyte, pH 7.3
T3 sequence (looked up): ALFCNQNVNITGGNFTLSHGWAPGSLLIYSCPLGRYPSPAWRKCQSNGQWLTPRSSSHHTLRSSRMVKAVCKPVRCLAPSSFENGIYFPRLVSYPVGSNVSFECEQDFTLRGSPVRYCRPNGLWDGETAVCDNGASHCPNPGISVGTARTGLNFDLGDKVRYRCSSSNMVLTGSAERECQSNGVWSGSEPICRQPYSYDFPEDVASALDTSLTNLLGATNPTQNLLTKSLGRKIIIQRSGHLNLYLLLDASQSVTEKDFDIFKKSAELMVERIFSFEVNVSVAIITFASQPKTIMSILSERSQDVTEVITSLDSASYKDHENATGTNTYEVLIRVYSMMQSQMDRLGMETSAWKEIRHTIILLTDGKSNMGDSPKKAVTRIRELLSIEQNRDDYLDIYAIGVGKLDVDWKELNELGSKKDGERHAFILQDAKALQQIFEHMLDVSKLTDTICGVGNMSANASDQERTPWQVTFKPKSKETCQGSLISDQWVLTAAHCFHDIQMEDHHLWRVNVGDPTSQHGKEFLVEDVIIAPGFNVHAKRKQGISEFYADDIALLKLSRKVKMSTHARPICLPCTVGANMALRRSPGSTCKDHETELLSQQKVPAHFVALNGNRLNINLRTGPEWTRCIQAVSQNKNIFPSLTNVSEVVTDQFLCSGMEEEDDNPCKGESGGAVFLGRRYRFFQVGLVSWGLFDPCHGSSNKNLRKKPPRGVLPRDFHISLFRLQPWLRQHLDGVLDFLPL
Experimental: as §1, §2

human FcRn/β2m = molecular target: T4, human FcRn/β2m (human, UniProt P55899 24-297; P61769 21-119); experiment: SPR, antibody immobilised, FcRn/β2m analyte, pH 6.0; pH 6.0
T4 construct: Soluble FcRn/β2m injected as analyte over immobilised antibody; also called neonatal Fc receptor
Experimental: (§4) Anti-C2 mAbs (1 μg/mL at pH 5) were immobilized on a carboxylmethyldextran (CM5) sensorchip surface using standard EDC/NHS chemistry. Human and Cyno FcRn/β2m (40 μM) were prepared in running buffer (10 mM HEPES, 150 mM NaCl, 10 mM MES adjusted to either pH 6 or pH 7.3) and injected on the immobilized anti-C2 surface at concentrations ranging from 0.078 to 40 μM, prepared in two-fold dilutions in running buffer. Association and dissociation phases were monitored for 180 and 600 seconds, respectively. […] Double referenced sensorgrams were fitted to either a 1:1 kinetic model (pH 6), including a term for mass transport limitation or to a 1:1 steady state model (pH 7.3) where responses at the end of the association phase were plotted against respective concentrations.
(§5) Binding to both human and cynomolgus monkey FcRn was tested using the SPR methods described above.

[9] = molecular target: T5, cynomolgus monkey FcRn/β2m (cynomolgus monkey, UniProt Q8SPV9 24-297; Q8SPW0 21-119, limits assumed); experiment: SPR, immobilised antibody, cyno FcRn/b2m analyte, pH 6.0; pH 6.0
T5 construct: injected in solution over immobilised antibody; also called Cyno FcRn/β2m
Experimental: as §4, §5

[10] = molecular target: T6, human complement C2 zymogen (human, UniProt P06681 21-752); experiment: SPR, human C2 zymogen analyte, HBS-EP, pH 7.3, 37 C
T6 construct: also called huC2; human C2
T6 sequence: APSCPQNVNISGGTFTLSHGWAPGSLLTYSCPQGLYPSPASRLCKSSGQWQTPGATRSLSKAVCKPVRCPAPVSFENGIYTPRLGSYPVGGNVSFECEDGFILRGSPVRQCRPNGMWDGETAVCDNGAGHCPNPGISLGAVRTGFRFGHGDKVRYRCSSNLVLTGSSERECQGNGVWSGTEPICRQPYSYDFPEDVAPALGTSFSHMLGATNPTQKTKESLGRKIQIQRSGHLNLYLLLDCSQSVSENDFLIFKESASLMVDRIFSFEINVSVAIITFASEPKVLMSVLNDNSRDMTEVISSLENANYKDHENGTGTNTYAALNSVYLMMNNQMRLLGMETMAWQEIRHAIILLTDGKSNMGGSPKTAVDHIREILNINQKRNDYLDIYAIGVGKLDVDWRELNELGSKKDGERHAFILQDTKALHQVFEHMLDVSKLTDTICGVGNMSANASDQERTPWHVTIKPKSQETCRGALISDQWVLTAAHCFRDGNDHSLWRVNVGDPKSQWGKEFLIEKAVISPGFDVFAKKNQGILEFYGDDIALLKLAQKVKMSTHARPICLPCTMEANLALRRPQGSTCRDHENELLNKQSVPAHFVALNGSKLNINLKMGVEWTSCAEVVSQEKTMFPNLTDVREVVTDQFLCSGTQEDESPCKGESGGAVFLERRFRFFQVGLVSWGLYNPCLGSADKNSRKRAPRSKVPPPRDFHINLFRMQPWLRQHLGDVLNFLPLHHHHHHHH
Experimental: as §1
(§6) Purified human C2 zymogen and human C2a were tested at concentrations ranging from 1.9 to 500 nM while human C2b was tested at concentrations ranging from 1.9 to 1000 nM. All experiments were performed in HBS-EP buffer supplemented with 0.1% BSA at 37° C. and pH 7.3. Each antibody was tested against human C2 zymogen and human C2a in duplicate and against C2b in quadruplicate. The flow rate was set to 30 μL/min. Each analyte concentration was tested in duplicate.

human C2b = molecular target: T7, human C2b (human, UniProt P06681 21-243); experiment: SPR, HBS-EP, pH 7.3, 37 C
T7 construct: the whole entry is named here
T7 sequence: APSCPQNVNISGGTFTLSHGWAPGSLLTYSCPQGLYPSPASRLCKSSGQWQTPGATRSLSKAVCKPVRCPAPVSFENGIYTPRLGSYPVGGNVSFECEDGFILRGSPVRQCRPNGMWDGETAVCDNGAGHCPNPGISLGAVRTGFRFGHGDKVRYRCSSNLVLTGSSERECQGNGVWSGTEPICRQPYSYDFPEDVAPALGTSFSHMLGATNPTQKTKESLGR
Experimental: as §1, §6

[11] = molecular target: T8, human C2a (activated human C2) (human, UniProt P06681 244-752); experiment: SPR, HBS-EP, pH 7.3, 37 C
T8 construct: the whole entry is named here; also called huC2a
T8 sequence: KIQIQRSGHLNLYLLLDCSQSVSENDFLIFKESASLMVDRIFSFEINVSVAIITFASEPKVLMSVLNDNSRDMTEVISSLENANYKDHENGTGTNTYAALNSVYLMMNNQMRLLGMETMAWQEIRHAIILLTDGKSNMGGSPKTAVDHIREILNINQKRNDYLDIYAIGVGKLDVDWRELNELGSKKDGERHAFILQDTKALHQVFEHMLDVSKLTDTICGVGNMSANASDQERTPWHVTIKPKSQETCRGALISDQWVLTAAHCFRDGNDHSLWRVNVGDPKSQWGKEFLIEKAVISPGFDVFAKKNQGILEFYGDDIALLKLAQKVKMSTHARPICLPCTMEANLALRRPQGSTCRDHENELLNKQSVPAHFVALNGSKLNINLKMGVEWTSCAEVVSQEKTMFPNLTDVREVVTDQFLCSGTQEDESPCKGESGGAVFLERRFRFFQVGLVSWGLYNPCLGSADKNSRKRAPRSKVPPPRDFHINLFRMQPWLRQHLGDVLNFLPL
Experimental: as §1, §6

T4 sequence (P55899 24-297 limits assumed, chain 1 of 2): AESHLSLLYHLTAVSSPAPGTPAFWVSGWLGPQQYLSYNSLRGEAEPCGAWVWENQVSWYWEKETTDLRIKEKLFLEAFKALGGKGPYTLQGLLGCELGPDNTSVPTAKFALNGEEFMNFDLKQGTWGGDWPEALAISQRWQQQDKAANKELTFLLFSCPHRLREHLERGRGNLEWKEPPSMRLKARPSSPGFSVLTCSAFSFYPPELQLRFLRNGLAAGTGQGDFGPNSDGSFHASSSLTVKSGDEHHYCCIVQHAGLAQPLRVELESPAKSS
T4 sequence (P61769 21-119 limits assumed, chain 2 of 2): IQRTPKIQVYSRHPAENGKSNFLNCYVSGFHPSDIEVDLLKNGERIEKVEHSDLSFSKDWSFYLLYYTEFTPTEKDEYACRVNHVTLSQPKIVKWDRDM
T5 sequence (Q8SPV9 24-297 limits assumed, chain 1 of 2): as the sequence (P55899 24-297 limits assumed, chain 1 of 2) above, with N39D, E44Q, G99S, S189G, S190N, L217M, S269T counted along it
T5 sequence (Q8SPW0 21-119 limits assumed, chain 2 of 2): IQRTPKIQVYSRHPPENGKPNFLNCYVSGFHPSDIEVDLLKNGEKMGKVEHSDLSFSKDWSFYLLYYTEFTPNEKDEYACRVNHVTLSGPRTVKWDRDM

B1: RF16-191 (antibody, V domains shown)
VH: EVQLLESGGGLVQPGGSLRLSCAASGFTFSKYWMGWVRQATGKGLEWVSSIYSSGGWTYYADSVKGRFTISRDNSKNTLYLQMNSLRAEDTAVYYCARRPRSFSGSYYRAFDIWGQGTMVTVSS
VL: DIQMTQSPSSLSASVGDRVTITCRASQSITDYLNWYQQRPGKAPKLLIYAASSLQSGVPSRFSGSGSGTDFTLTISGLQPEDFATYYCQQSYSSSITFGQGTRLDLKR
notes: Human antibody from a phage display library
Cynomolgus monkey C2 [1]
  IC50, inhibition of cynomolgus classical complement pathway (Wieslab assay): 11 nM
  IC50, inhibition of cynomolgus lectin complement pathway (Wieslab assay): 49.2 nM
Cynomolgus monkey C2 [2]
  Kd: 27.4 nM
Cynomolgus monkey C2 [3]
  Kd: 71.3 nM
Human complement C2 [4]
  IC50, inhibition of human classical pathway (hemolysis assay): 29.4 nM
Cynomolgus monkey C2 [5]
  IC50, inhibition of cyno classical pathway (hemolysis assay): 188 nM
Human complement C2 [6]
  Kd: 10.9 nM
Human complement C2 [7]
  IC50, inhibition of human classical complement pathway (Wieslab assay): 1.09 nM
  IC50, inhibition of human lectin complement pathway (Wieslab assay): 0.857 nM
Human complement C2 [8]
  Kd: 13 nM
Mouse C2
  Kd: 303 nM

B2: RF16-226 M252Y, S254T, T256E (antibody, human IgG4 S228P, lambda)
heavy: EVQLVQSGAEVKKPGESLKISCKGSGYSFTSYWIGWVRQMPGKGLEWMGIIYPGDSDTRYSPSFQGQVTISADKSISTAYLQWSSLKASDTAMYYCARRFSYSSGWDMWGQGTLVTVSSASTKGPSVFPLAPCSRSTSESTAALGCLVKDYFPEPVTVSWNSGALTSGVHTFPAVLQSSGLYSLSSVVTVPSSSLGTKTYTCNVDHKPSNTKVDKRVESKYGPPCPPCPAPEFLGGPSVFLFPPKPKDTLYITREPEVTCVVVDVSQEDPEVQFNWYVDGVEVHNAKTKPREEQFNSTYRVVSVLTVLHQDWLNGKEYKCKVSNKGLPSSIEKTISKAKGQPREPQVYTLPPSQEEMTKNQVSLTCLVKGFYPSDIAVEWESNGQPENNYKTTPPVLDSDGSFFLYSRLTVDKSRWQEGNVFSCSVMHEALHNHYTQKSLSLSLGK
light: SYELTQPPSVSVSPGQTARITCSGDALTSKYVAWYQQKSGLAPLLVIYEDTRRPSGIPAKFSGSSSGSVATLTISGAHGDDEADYYCYSTDASGHQRVFGGGTKLTVLSQPKAAPSVTLFPPSSEELQANKATLVCLISDFYPGAVTVAWKADGSPVKAGVETTKPSKQSNNKYAASSYLSLTPEQWKSHRSYSCQVTHEGSTVEKTVAPTECS
Human FcRn/β2m
  Kd: 680 nM

B3: RF16-226 M428L, N434A (antibody, human IgG4 S228P, lambda)
heavy: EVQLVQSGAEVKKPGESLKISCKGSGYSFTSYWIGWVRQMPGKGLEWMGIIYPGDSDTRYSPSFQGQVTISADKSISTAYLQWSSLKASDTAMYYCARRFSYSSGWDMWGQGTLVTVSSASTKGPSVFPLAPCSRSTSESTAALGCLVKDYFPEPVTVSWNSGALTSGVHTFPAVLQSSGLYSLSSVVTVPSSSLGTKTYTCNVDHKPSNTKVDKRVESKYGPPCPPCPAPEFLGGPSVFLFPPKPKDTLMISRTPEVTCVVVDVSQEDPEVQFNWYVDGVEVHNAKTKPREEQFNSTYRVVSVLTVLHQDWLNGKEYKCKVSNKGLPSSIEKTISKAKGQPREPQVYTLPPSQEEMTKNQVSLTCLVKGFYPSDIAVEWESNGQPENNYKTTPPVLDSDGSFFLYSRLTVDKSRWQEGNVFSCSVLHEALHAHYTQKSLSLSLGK
light: SYELTQPPSVSVSPGQTARITCSGDALTSKYVAWYQQKSGLAPLLVIYEDTRRPSGIPAKFSGSSSGSVATLTISGAHGDDEADYYCYSTDASGHQRVFGGGTKLTVLSQPKAAPSVTLFPPSSEELQANKATLVCLISDFYPGAVTVAWKADGSPVKAGVETTKPSKQSNNKYAASSYLSLTPEQWKSHRSYSCQVTHEGSTVEKTVAPTECS
Human FcRn/β2m
  Kd: 640 nM

B4: RF16-226 Fc mutant M428L, N434A (antibody, human IgG4 S228P, lambda)
heavy: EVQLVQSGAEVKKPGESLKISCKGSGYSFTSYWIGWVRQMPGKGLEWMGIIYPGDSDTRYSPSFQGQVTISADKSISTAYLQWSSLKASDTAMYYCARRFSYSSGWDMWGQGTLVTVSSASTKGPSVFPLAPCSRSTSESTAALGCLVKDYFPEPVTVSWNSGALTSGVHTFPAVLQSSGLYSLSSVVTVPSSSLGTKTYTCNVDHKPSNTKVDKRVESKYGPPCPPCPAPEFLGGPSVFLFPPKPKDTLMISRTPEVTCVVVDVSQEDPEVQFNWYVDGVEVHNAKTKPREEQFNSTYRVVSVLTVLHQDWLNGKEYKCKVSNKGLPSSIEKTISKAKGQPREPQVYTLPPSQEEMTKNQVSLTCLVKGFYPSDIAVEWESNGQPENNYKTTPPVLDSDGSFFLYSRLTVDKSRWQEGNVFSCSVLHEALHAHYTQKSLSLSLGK
light: SYELTQPPSVSVSPGQTARITCSGDALTSKYVAWYQQKSGLAPLLVIYEDTRRPSGIPAKFSGSSSGSVATLTISGAHGDDEADYYCYSTDASGHQRVFGGGTKLTVLSQPKAAPSVTLFPPSSEELQANKATLVCLISDFYPGAVTVAWKADGSPVKAGVETTKPSKQSNNKYAASSYLSLTPEQWKSHRSYSCQVTHEGSTVEKTVAPTECS
[9]
  Kd: 420 nM

B5: RF16-226G (antibody, human IgG4 S228P, lambda)
heavy: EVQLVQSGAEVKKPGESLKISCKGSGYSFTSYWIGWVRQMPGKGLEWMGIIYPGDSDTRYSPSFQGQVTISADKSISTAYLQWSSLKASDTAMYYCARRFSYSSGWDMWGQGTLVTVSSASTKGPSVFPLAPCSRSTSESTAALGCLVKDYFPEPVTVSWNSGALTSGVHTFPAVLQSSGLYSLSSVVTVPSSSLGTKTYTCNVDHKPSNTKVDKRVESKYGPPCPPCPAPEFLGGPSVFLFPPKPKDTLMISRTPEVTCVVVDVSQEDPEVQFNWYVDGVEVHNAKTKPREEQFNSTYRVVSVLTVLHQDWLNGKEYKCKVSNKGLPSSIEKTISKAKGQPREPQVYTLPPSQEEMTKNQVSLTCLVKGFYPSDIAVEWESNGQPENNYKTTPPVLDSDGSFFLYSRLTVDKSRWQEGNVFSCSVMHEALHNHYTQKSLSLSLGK
light: SYELTQPPSVSVSPGQTARITCSGDALTSKYVAWYQQKSGQAPVLVIYEDTRRPSGIPERFSGSSSGTMATLTISGAQVEDEADYYCYSTDASGHQRVFGGGTKLTVLGQPKAAPSVTLFPPSSEELQANKATLVCLISDFYPGAVTVAWKADSSPVKAGVETTTPSKQSNNKYAASSYLSLTPEQWKSHRSYSCQVTHEGSTVEKTVAPTECS
[10]
  Kd: 7 nM
Human C2b
  binding result: no binding (tested: C2b tested up to 1000 nM)
[11]
  binding result: no binding (tested: C2a tested up to 500 nM)
